Stoichiometry N data for 1 molecule are collected here from PMC8199271.

For this assay, the target named is T1, wild-type MBP–CHIP (C-terminus of HSC70-interacting protein, encoded by STUB1) (human), Q9UNE7.
T1 chain: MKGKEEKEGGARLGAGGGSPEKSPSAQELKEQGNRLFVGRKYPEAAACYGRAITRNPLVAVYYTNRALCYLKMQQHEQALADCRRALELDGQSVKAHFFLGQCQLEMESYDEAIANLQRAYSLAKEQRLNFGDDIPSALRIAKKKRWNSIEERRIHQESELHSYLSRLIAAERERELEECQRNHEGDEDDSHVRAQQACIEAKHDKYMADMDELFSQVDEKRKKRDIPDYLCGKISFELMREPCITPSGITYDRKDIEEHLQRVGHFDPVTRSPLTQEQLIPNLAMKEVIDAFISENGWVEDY
Kind of assay: native gel or EMSA; 5 µg MBP–CHIP in Native Sample Buffer on a 10% gel, 4 °C, 3 h at 140 V, Tris/glycine (25 mM Tris, 192 mM glycine) pH 8.3; Coomassie staining, bands analysed by Fiji (ImageJ); self-association (monomer, dimer, higher-order oligomers). As to conditions: remark: other sources report otherwise.

B1: wild-type MBP–CHIP (C-terminus of HSC70-interacting protein, encoded by STUB1), Q9UNE7-1 1-303 (natural protein)
chain: MKGKEEKEGGARLGAGGGSPEKSPSAQELKEQGNRLFVGRKYPEAAACYGRAITRNPLVAVYYTNRALCYLKMQQHEQALADCRRALELDGQSVKAHFFLGQCQLEMESYDEAIANLQRAYSLAKEQRLNFGDDIPSALRIAKKKRWNSIEERRIHQESELHSYLSRLIAAERERELEECQRNHEGDEDDSHVRAQQACIEAKHDKYMADMDELFSQVDEKRKKRDIPDYLCGKISFELMREPCITPSGITYDRKDIEEHLQRVGHFDPVTRSPLTQEQLIPNLAMKEVIDAFISENGWVEDY
Regarding B1, the stoichiometry N is 2.

What is called stoichiometry N is a count of units in the complex or per binding partner.
